According to patent publication US20050112126A1 (Genentech, published 2005):
Several values for one entry are separate records, joined by “and”; a condition that tells them apart may be missing. Identical values can stand only once.

Experiments:
VEGF [1] = target: T1, VEGF (human, UniProt P15692-4 27-191, limits assumed); assay: BIAcore SPR, F(ab) over immobilized VEGF
T1 construct: Biotinylated in the KDR-IgG ELISA, amine-coupled to the chip in BIAcore; also called biotinylated VEGF; vascular endothelial growth factor
Text: (§1) BIAcore™ Biosensor Assay: VEGF binding of the humanized and chimeric F(ab)s were compared using a BIAcore™ biosensor (Karlsson et al. Methods: A Comparison to Methods in Enzymology 6:97-108 (1994)). […] VEGF was coupled to a CM-5 biosensor chip through primary amine groups according to manufacturer's instructions (Pharmacia). […] Data points from 0-4500 sec were used for off-rate kinetic analysis. The dissociation rate constant (koff) was obtained from the slope of the plot of ln(R0/R) versus time, where R0 is the signal at t=0 and R is the signal at each time point.
(§2) The slope, Kₛ, was obtained from the plot of ln(−dR/dt) versus time for each F(ab) concentration using the BIAcore™ kinetics evaluation software as described in the Pharmacia Biosensor manual. R is the signal at time t. […] The association rate constant (kₒₙ) was obtained from the slope of the plot of Kₛ versus F(ab) concentration. At the end of each cycle, bound F(ab) was removed by injecting 5 μl of 50 mM HCl at a flow rate of 20 μl/min to regenerate the chip.

VEGF121 = target: T2, VEGF121 (human, UniProt P15692 27-147); assay: BIAcore SPR, Fab over immobilized VEGF121
T2 construct: mature; Immobilized on the biosensor chip via primary amino groups; also called Purified VEGF121
T2 sequence (looked up): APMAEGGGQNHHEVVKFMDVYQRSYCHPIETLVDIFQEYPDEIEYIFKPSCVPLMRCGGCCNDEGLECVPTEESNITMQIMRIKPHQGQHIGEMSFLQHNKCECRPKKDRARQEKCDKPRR
Experimental: VEGF₁₂₁ was covalently immobilized on the biosensorchip via primary amino groups. Binding of humanized A4.6.1 Fab variants was measured by flowing solutions of Fab in PBS/0.05% TWEEN 20™ over the chip at a flow rate of 20 μL/min. Following each binding measurement, residual Fab was stripped from the immobilized ligand by washing with 5 μL of 50 mM aqueous HCl at 3 μL/min. Binding profiles were analyzed by nonlinear regression using a simple monovalent binding model (BIAevaluation software v2.0; Pharmacia).

VEGF [2] = target: T1, VEGF; assay: competition ELISA (biotinylated VEGF to KDR-IgG)
Experimental: Standards (6.9-440 ng/ml chimeric F(ab)) and two-fold serial of samples were incubated with 2 nM biotinylated VEGF for 1 h in tubes. The solutions from the tubes were then transferred to the ELISA plates and incubated for 1 h. […] Titration curves were fit with a four-parameter nonlinear regression curve-fitting program (KaleidaGraph, Synergy Software, Reading Pa.). […] Assays for full-length IgG were the same as for the F(ab)s except that the assay buffer contained 10% human serum.

VEGF [3] = target: T1, VEGF; assay: BIAcore SPR, F(ab) over immobilized VEGF, koff/kon
Text: as §1, §2

koff (VEGF [1]): 5.9e-05 s⁻¹
kon (VEGF [1]): 65000 M⁻¹ s⁻¹
Kd (VEGF121): 1.6 nM
koff (VEGF121): 8.5e-05 s⁻¹
kon (VEGF121): 54000 M⁻¹ s⁻¹
EC50 (VEGF [2]): 0.049 µg/mL and 1 nM
EC50 F(ab)-X / EC50 chimeric F(ab) (VEGF [2]): 1 ratio
Kd (VEGF [3]): 0.91 nM
B1: chimeric F(ab) (Fab, V domains shown)
VH: EIQLVQSGPELKQPGETVRISCKASGYTFTNYGMNWVKQAPGKGLKWMGWINTYTGEPTYAADFKRRFTFSLETSASTAYLQISNLKNDDTATYFCAKYPHYYGSSHWYFDVWGAGTTVTVSS
VL: DIQMTQTTSSLSASLGDRVIISCSASQDISNYLNWYQQKPDGTVKVLIYFTSSLHSGVPSRFSGSGSGTDYSLTISNLEPEDIATYYCQQYSTVPWTFGGGTKLEIKR
notes: also called chim-F(ab); A4.6.1 chimera
